Data as given in publication PMC7369618.

Target: pyruvate kinase M2 (PKM2), endogenous in mouse macrophages (mouse (endogenous in BMDMs or Raw 264.7)) (UniProt P52480)
Experiment: cross-linking

Chain of pyruvate kinase M2 (PKM2), endogenous in mouse macrophages, P52480 1-531 (enzyme; other documents disagree on this pair) (P52480 whole entry): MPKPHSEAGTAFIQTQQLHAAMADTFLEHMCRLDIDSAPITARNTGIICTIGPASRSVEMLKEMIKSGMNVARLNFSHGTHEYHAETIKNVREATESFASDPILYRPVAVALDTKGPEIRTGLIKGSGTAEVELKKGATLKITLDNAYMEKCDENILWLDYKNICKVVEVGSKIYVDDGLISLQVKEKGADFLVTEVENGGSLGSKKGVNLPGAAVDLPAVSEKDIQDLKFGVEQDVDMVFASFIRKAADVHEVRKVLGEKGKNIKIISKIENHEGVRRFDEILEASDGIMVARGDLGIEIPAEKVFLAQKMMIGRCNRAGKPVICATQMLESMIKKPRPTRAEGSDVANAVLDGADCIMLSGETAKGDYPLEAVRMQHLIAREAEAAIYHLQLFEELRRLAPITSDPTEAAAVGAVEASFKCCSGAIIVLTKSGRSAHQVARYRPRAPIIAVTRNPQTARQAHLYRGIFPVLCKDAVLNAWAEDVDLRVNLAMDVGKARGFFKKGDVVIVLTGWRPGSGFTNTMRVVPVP

pyruvate kinase M2 (PKM2), endogenous in mouse macrophages, P52480 1-531 (enzyme; other documents disagree on this pair)
stoichiometry N: 4
